Experimental data: FireProtDB (doi:10.1021/bi9910169)

B1: Lysozyme C, P61626 (parent)
chain: MKALIVLGLVLLSVTVQGKVFERCELARTLKRLGMDGYRGISLANWMCLAKWESGYNTRATNYNAGDRSTDYGIFQINSRYWCNDGKTPGAVNACHLSCSALLQDNIADAVACAKRVVRDPQGIRAWVAWRNRCQNRDVRQYVQGCGV

Variants of: B1
Conditions: Homo sapiens, Thermal, DSC, glycine-HCl 0.05 M, reversible: yes, structure 1LZ1, whole UniProt chain shown

Variant	Tm (pH 2.5)	unfolding enthalpy (calorimetric) (pH 2.5)	unfolding enthalpy (van 't Hoff) (pH 2.5)	Tm (pH 2.7)	unfolding enthalpy (calorimetric) (pH 2.7)	unfolding enthalpy (van 't Hoff) (pH 2.7)	Tm (pH 2.85)	unfolding enthalpy (calorimetric) (pH 2.85)	unfolding enthalpy (van 't Hoff) (pH 2.85)	Tm (pH 3)	unfolding enthalpy (calorimetric) (pH 3)	unfolding enthalpy (van 't Hoff) (pH 3)	Tm (pH 3.1)	unfolding enthalpy (calorimetric) (pH 3.1)	unfolding enthalpy (van 't Hoff) (pH 3.1)
MKALIVLGLVLLSVTVQGKVFERCELARTLKRLGMDGYRGISLANWMCLAKWESGYNARATNYNAGDRSTDYGIFQINSRYWCNDGKTPGAVNACHLSCSALLQDNIADAVACAKRVVRDPQGIRAWVAWRNRCQNRDVRQYVQGCGV [T58A]	56.6 °C	97.5 kcal/mol	103 kcal/mol	59.4 °C	99.9 kcal/mol	102 kcal/mol	63.3 °C	107 kcal/mol	114 kcal/mol	66.5 °C	114 kcal/mol	117 kcal/mol	68.6 °C	117 kcal/mol	121 kcal/mol
MKALIVLGLVLLSVTVQGKVFERCELARTLKRLGMDGYRGISLANWMCLAKWESGYNTRATNYNAGDRSTDYGIFQINSRYWCNDGKAPGAVNACHLSCSALLQDNIADAVACAKRVVRDPQGIRAWVAWRNRCQNRDVRQYVQGCGV [T88A]	57.3 °C	98.5 kcal/mol	99.9 kcal/mol	60 °C	101 kcal/mol	104 kcal/mol	62.2 °C	103 kcal/mol	106 kcal/mol	64.7 °C	107 kcal/mol	110 kcal/mol	67.1 °C	110 kcal/mol	113 kcal/mol
MKALIVLGLVLLSVTVQGKVFERCELARTLKRLGMDGYRGISLANWMCLAKWESGYNTRATNYNAGDRSTDYGIFQINSRYWCNDGKVPGAVNACHLSCSALLQDNIADAVACAKRVVRDPQGIRAWVAWRNRCQNRDVRQYVQGCGV [T88V]	59.5 °C	102 kcal/mol	106 kcal/mol	62.6 °C	107 kcal/mol	111 kcal/mol	65.3 °C	112 kcal/mol	117 kcal/mol	67.6 °C	115 kcal/mol	121 kcal/mol	70.3 °C	119 kcal/mol	123 kcal/mol
MKALIVLGLVLLSVTVQGKVFERCELARTLKRLGMDGYRGISLANWMCLAKWESGYNTRATNYNAGDRSVDYGIFQINSRYWCNDGKTPGAVNACHLSCSALLQDNIADAVACAKRVVRDPQGIRAWVAWRNRCQNRDVRQYVQGCGV [T70V]	58.8 °C	98.7 kcal/mol	104 kcal/mol	62.1 °C	102 kcal/mol	107 kcal/mol	64.2 °C	105 kcal/mol	110 kcal/mol	66.6 °C	107 kcal/mol	113 kcal/mol	68.7 °C	111 kcal/mol	114 kcal/mol
